Molecular target: T1, NPVEDS peptide (LRC1 epitope, residues 286-291 of ASPH) (human)
T1 peptide: NPVEDS
Assay: peptide inhibition (data not shown)

B1: LRC1 monoclonal antibody (antibody, V domains shown)
VH: EVQLVESGGGLVKPGGSLKFSCAASGFTFSRYAMPWVRQTPEKRLEWVATISSGGSYTYYPDSVKGRLTISRDNAKNTLYLQMSSLRSEDTAMYYCARQGNYYGSSHLYYAMDYWGQGTSVTVSS
VL: QLVLTQSSSASFSLGASAKLTCTLNSQHRAYTIEWYQQQPLKPPKYVMELKKDGSHSTGDGIPDRFSGSSSGADRYLSISNIQPEDEAIYICGVGDTIKEQFVYVFGGGTKVTVL
notes: also called LRC1 mAb; LRC1 antibody
Question: Does B1 bind?
Answer: binds

From patent US20250264470A1 (RHODE ISLAND HOSPITAL, published 2025)
